According to doi:10.1101/525659:

Biological target: His6-tagged αSyn (human) (UniProt P37840)
Experiment: BLI

## E234G/H363A-HYPE (from UniProt Q9BVA6 102-458) (enzyme)
  Kd: 15.3 µM
